Results taken from publication PMC6522503.

Columns and labels:
CDK4 = CDK4 (UniProt P11802); assay: anti-HA co-IP, anti-FLAG blot; conditions: reference: wild type p21; sites T55
CDK2 = CDK2 (UniProt P24941); assay: anti-HA co-IP, anti-FLAG blot; conditions: reference: wild type p21; sites T55

binding against the reference (CDK4): weaker
binding against the reference (CDK2): weaker
Substance: p21 (from UniProt P38936) T55A p21
